According to the FLAb antibody collection (doi:10.7554/elife.23156):

B1: scFv; the commonest letter at each place (parent)
chain 1: EVKLDETGGGLVQPGRPMKLSCVASGFTFSDYWMNWVRQSPEKGLEWVAQIRNKPYNYETYYSDSVKGRFTISRDDSKSSVYLQMNNLRVEDMGIYYCTGSYYGMDYWGQGTSVTVS
chain 2: DVVMTQTPLSLPVSLGDQASISCRSSQSLVHSNGNTYLRWYLQKPGQSPKVLIYKVSNRFSGVPDRFSGSGSGTDFTLKISRVEAEDLGVYFCSQSTHVPWTFGGGTKLEIK

What was measured:
fluorescein = variants of: B1; assay: Kd (Tite-Seq); settings: with fluorescein; format: scFv 4-4-20, heavy + light
[1] = variants of: B1; assay: yeast surface expression (ratio to wild type); higher = more expressed; settings: format: scFv 4-4-20, heavy + light

Variant | Kd (fluorescein) [µM] | yeast surface expression [1]
chain 1 D31R W36N | ≥ 10 | 1.06
chain 1 D31R Y32A | 0.0944 | 0.863
chain 1 D31R Y32D | ≥ 10 | 0.643
chain 1 D31R Y32I | ≥ 10 | 0.818
chain 1 D31R Y32K V37Y | ≥ 10 | 1.3
chain 1 D31S | 0.00245 | 0.902
chain 1 D31S M34C N35Y | ≥ 10 | 0.927
chain 1 D31S M34G | ≥ 10 | 0.543
chain 1 D31S M34I | 0.004 | 0.757
chain 1 D31S M34R | ≥ 10 | 0.424
chain 1 D31S V37H | 9.02 | 0.644
chain 1 D31S V37N | ≥ 10 | 0.629
chain 1 D31S V37P | ≥ 10 | 0.675
chain 1 D31S W36C | ≥ 10 | 0.929
chain 1 D31S W36I | ≥ 10 | 0.724
chain 1 D31S W36P | ≥ 10 | 3.88
chain 1 D31S W36S | ≥ 10 | 2.03
chain 1 D31S Y32C | 6.61 | 0.648
chain 1 D31S Y32F | 0.018 | 0.876
chain 1 D31S Y32G | 0.24 | 0.78
chain 1 D31S Y32W | ≥ 10 | 0.83
chain 1 D31T | 0.00371 | 0.766
chain 1 D31T M34E | 0.0692 | 0.635
chain 1 D31T M34Y | 0.0494 | 0.706

Variant | Kd (fluorescein) [µM] | yeast surface expression [1]
chain 1 D31T V37D | ≥ 10 | 0.511
chain 1 D31T V37S | ≥ 10 | 0.269
chain 1 D31T V37W | 6.61 | 0.726
chain 1 D31T W33E | ≥ 10 | 0.544
chain 1 D31T W33F | 2.11 | 0.629
chain 1 D31T W33L | ≥ 10 | 0.518
chain 1 D31T W33N | ≥ 10 | 0.661
chain 1 D31T W36C | ≥ 10 | 0.789
chain 1 D31T Y32G | 0.0391 | 0.798
chain 1 D31V | ≥ 10 | 0.515
chain 1 D31V M34C | ≥ 10 | 0.411
chain 1 D31V M34E | 0.676 | 2.76
chain 1 D31V M34R | 0.195 | 0.17
chain 1 D31V N35C | ≥ 10 | 0.424
chain 1 D31V V37E | 0.205 | 0.807
chain 1 D31V W33D | ≥ 10 | 0.821
chain 1 D31V W33K | ≥ 10 | 0.795
chain 1 D31V W36G | ≥ 10 | 2.19
chain 1 D31V Y32L | 0.972 | 0.584
chain 1 D31V Y32P | ≥ 10 | 0.759
chain 1 D31W | 0.00293 | 0.566
chain 1 D31W W33G | 9.02 | 0.542
chain 1 D31W W33L N35I | ≥ 10 | 0.49
chain 1 D31W W36E | ≥ 10 | 1.08

Variant | Kd (fluorescein) [µM] | yeast surface expression [1]
chain 1 D31Y | 0.00334 | 0.729
chain 1 D31Y M34K | 0.676 | 0.834
chain 1 D31Y N35I | ≥ 10 | 0.469
chain 1 D31Y V37Q | 0.0592 | 1.38
chain 1 D31Y W33C | ≥ 10 | 0.597
chain 1 D31Y W33F V37H | ≥ 10 | 0.788
chain 1 D31Y W33H | ≥ 10 | 0.579
chain 1 D31Y W33R | ≥ 10 | 0.325
chain 1 D31Y W36S | ≥ 10 | 0.638
chain 1 D106A | 2.96 | 0.694
chain 1 D106A G109H | ≥ 10 | 0.448
chain 1 D106A W108M | ≥ 10 | 0.713
chain 1 D106A W108V | ≥ 10 | 0.529
chain 1 D106A Y107F | 1.91 | 0.508
chain 1 D106A Y107I | 6.61 | 0.646
chain 1 D106C | 2.17 | 0.955
chain 1 D106C W108H | ≥ 10 | 0.583
chain 1 D106C W108K | ≥ 10 | 0.314
chain 1 D106E | 0.0221 | 1.1
chain 1 D106E W108I | 0.228 | 0.866
chain 1 D106F | ≥ 10 | 0.325
chain 1 D106F G109A | ≥ 10 | 0.112
chain 1 D106F Y107D | ≥ 10 | 0.296
chain 1 D106F Y107G | ≥ 10 | 0.238

Variant | Kd (fluorescein) [µM] | yeast surface expression [1]
chain 1 D106G | ≥ 10 | 0.655
chain 1 D106G W108E | ≥ 10 | 0.575
chain 1 D106G Y107S | ≥ 10 | 0.474
chain 1 D106G Y107W | ≥ 10 | 0.338
chain 1 D106H | ≥ 10 | 0.557
chain 1 D106H G109K | ≥ 10 | 0.265
chain 1 D106H W108I | ≥ 10 | 0.67
chain 1 D106H Y107A | ≥ 10 | 0.455
chain 1 D106H Y107D | ≥ 10 | 0.284
chain 1 D106I | ≥ 10 | 0.577
chain 1 D106I G109C | ≥ 10 | 0.203
chain 1 D106I W108N | ≥ 10 | 0.254
chain 1 D106I W108Q | ≥ 10 | 0.395
chain 1 D106I W108R | ≥ 10 | 0.422
chain 1 D106I W108S | ≥ 10 | 0.397
chain 1 D106K | ≥ 10 | 0.415
chain 1 D106K G109L | ≥ 10 | 0.324
chain 1 D106K W108G | ≥ 10 | 0.276
chain 1 D106L | ≥ 10 | 0.466
chain 1 D106L G109C | ≥ 10 | 0.166
chain 1 D106L G109H | ≥ 10 | 0.0932
chain 1 D106L G109S | ≥ 10 | 0.464
chain 1 D106L W108C | ≥ 10 | 0.234
chain 1 D106L W108I | ≥ 10 | 0.314

Variant | Kd (fluorescein) [µM] | yeast surface expression [1]
chain 1 D106L W108M | ≥ 10 | 0.541
chain 1 D106L W108R G109Y | ≥ 10 | 0.0998
chain 1 D106M | ≥ 10 | 0.574
chain 1 D106M W108H | ≥ 10 | 0.556
chain 1 D106M Y107C | ≥ 10 | 0.228
chain 1 D106N | 0.00131 | 0.681
chain 1 D106N G109K | ≥ 10 | 0.277
chain 1 D106N G109N | ≥ 10 | 0.301
chain 1 D106N W108I | 0.00871 | 0.556
chain 1 D106N W108K | ≥ 10 | 0.446
chain 1 D106N W108Q | ≥ 10 | 0.453
chain 1 D106N Y107F | 0.00361 | 0.715
chain 1 D106N Y107I G109S | 0.136 | 0.679
chain 1 D106P | ≥ 10 | 0.635
chain 1 D106P W108K | ≥ 10 | 0.407
chain 1 D106P W108M | ≥ 10 | 0.714
chain 1 D106Q | 5.66 | 0.846
chain 1 D106Q W108G | ≥ 10 | 0.384
chain 1 D106Q Y107I | ≥ 10 | 0.712
chain 1 D106R | ≥ 10 | 0.451
